The nature of the data set: soluble fraction after stress (log2 fold change); higher = more stays soluble; pooled small domains, quantitative proteomics. The conditions noted are these: stress: pH 4. The procedure, abridged: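 Aggregation propensity is read out as the fold change in how much of each domain remains soluble after acid stress. The custom small-domain libraries were pooled, held at pH 4 and analysed with high-throughput quantitative proteomics. On the log2 scale used, higher values mean more of the domain stayed soluble.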
As for “HMQPEKELAPLIGQRVSVRLHDGDGGYRDLLGELESPDSIRKKNGEIAFFDPAKIAALRVVV”, the “soluble fraction (log2)” value came out at 0.326.

As to “HMQPGDRVDALIVGVSGEHVFLDVGGKSEGVMAAAELRNEAGELSAAEGDRVQVYLLSNRNGELIFTA”, the “soluble fraction (log2)” value was -0.283.

Consider “HMQPHLSADEEHLLKILGSDTMHIDALVKRSTLETSNALAALAFLEMKGLVKNIGNMHYIRTYR”, for which the “soluble fraction (log2)” value was -0.518.

For “HMQPIAVHIGTENPMKSLSDLSVVRAQFTSGGRVIGSVAVLGPTRMQYSRIVGMMRFMQQRLDLLLKG”, the “soluble fraction (log2)” value was -0.0772.

As to “HMQPKKLNMYYDYVRQLLESHPYLSAAQIEDRLKEEFTELPMVHSKTVFNFVENIRLQHGINKHA”, the “soluble fraction (log2)” value turned out to be 0.0853.

As for “HMQPLRQGDFVTSEVVKVQDGTAVLRTAQGTLLSASLTGNLGLLPGDRVETVVVEASPGRFVLRVLDIIR”, the “soluble fraction (log2)” value is -0.266.

For the sequence “HMQPPLTPRELGVLQWAAEGKTTRDTSAILQIHQRTVEMHLKSAREKLDALNTTHAVARALAHGFILPPS”, the “soluble fraction (log2)” value stood at 0.102.

For “HMQPPVDGNEIMEIFGIKGSPVIGVIKSTIKNAILDGIIAPNDREAALELMFRIADENGLKPVVTQTQ”, the “soluble fraction (log2)” value is -0.855.

In the case of “HMQPRYMLIKTAILDAIERGEMKPGSQVPSENQLAQQHNVSRMTARRALSEMVDDGILMRSQGIGTFVSD”, the “soluble fraction (log2)” value is -0.591.

As to “HMQPSFFEMIRMVESYIKQHFENVGNEFPEIARAIYYGIEEERNIYGTASREDMEELLDEGIPILPVP”, the “soluble fraction (log2)” value was -0.937.

For “HMQPVEHLPTTDPLTTSAASEHERYEKVRWWLEEMQRTYETGDEVRAERIRLSLIEQMYKWEGE”, the “soluble fraction (log2)” value was -1.09.

For “HMQPYTYNPNFLSDYRAYSLGIPLEAYDKLVQFRASGSFVNSMSDFQKITGVSDSLLAVLHSKFRYPK”, the “soluble fraction (log2)” value is -0.602.

“HMQQELEEMESGNLVRTAIDSLPINQRTAFILSAYEELPIKEIASIMNRSEGAVEQLLQRAKMNLKKKIK”: the “soluble fraction (log2)” value was -0.0659.

For “HMQQLTDRELEVLRLLAAGLSNNKIGEKLYISATTAKFHVSNIMRKLEVSRRAEAVYAASKRGL”, the “soluble fraction (log2)” value was -0.587.

On to “HMQQLTQRELTLLRLLANGYNNRQIAEQLQLAESTVKNNLSALFQKIGVRDRTQAVLFAISQGLVP”, for which the “soluble fraction (log2)” value was -0.462.

For the sequence “HMQQNDMTELRALAEKIISENDSVINDYKSGQGSALQFLIGQAMKETKGSANPQVISEIFTDLL”, the “soluble fraction (log2)” value was -0.548.

As to “HMQQPIPGEAYLTRRPGSDHFQIAFTIDGHRVRESSGTSDKVAAAALAQKRYEEVWREIKLGEK”, the “soluble fraction (log2)” value was -0.0232.

As for “HMQQPVAYSEFVQSVNDRQIREAQIQGERIVATDNNGNRMTVIWPENDTKLLDELVQNGVLTSIQE”, the “soluble fraction (log2)” value was -0.675.

As for “HMQQVDWGSVFGDFGTMFKDQLQPTIDRLRRMAQSDTFRQSSLEEQQILYSLIEKLERSGTA”, the “soluble fraction (log2)” value is -2.1.

On to “HMQQVIEGLDSDRDFITVPEAIALFAVGRQTLYHYIRSGKIPSVNLGQRLTRLSKKQLGELFPLR”, for which the “soluble fraction (log2)” value is -0.287.

With “HMQRGRTFSIVLNWKGRLLSTQMFFPQFTRPTKEQVTFEINKVYPGAMVYYYNPIEKDPSQPLV”, the “soluble fraction (log2)” value came to 0.0658.

As to “HMQRLSRREIEVLHWIAEGKSDWQIGQILSISAKTVNYHTENLKRKFGVATRMQAVVSAIKQGAFVPGE”, the “soluble fraction (log2)” value is -1.31.

Turning to “HMQRVSDKVAAQLRVLVQEQQLKPGDRLPAERALAVQLGVSRTALREAIAQLASQGLLTARVGGGTYVAEP”, the “soluble fraction (log2)” value came to 0.22.

Consider “HMQRYVVDENLKLDKKDINHIINVMRLNVNDQIKLINNGTIYDAIITKIEKNNVLYEIIKKEESK”, for which the “soluble fraction (log2)” value is -0.809.

For the sequence “HMQSANQLIKLSRKRKGLTQQELADQAGVSLRTVQRIEKGTEEISGFSLKQISQILEIPLEQLIM”, the “soluble fraction (log2)” value is -0.652.

With “HMQSLDGPSRAAIVLMAIGPDVAGELIKSFSPAEAQKVSSLLATVRSLDREVMIEVLDSFKNITEH”, the “soluble fraction (log2)” value was -0.5.

With “HMQSLPFSFAKRHGVLLKSINHLHGEAVYRIGANPLSLSEVQRYAGVPLKLSSITVEKFDRLLQETYEHD”, the “soluble fraction (log2)” value is -0.436.

As for “HMQSLSDQVFFYLKERIINNEMVPGSIISIEKLTSEFGISNTPVREAIVRLAGLDLVTIHRNKNITVS”, the “soluble fraction (log2)” value was -0.707.

Consider “HMQSMSADDWSEKARVLMSAGIIVMGQEAKEKILNLKSLVPLIEAASASNVSMIDSRTFDELLMIIP”, for which the “soluble fraction (log2)” value is -2.

On to “HMQSREISYSEFVTAVEAGDVRNVTLDGEQVRFRRADGSDYVTIRPEDAEVTKLLMANDIPVRAEP”, for which the “soluble fraction (log2)” value was -0.198.

For the sequence “HMQSRRTPASLVERVRQLNGQYQDKEIAELLNREGIKTAHGNEFNAKRIEMIRRHNGISKHSAQ”, the “soluble fraction (log2)” value is -0.0944.

For “HMQSSTAISFNQFQKSWLSNNIKSFQLGEDKMTVRGSLKNGTQYETIVPSERLFQFIGQHPKDGQVQEMY”, the “soluble fraction (log2)” value was no less than 0.43.

In the case of “HMQSTEQVSVTVTIPPGGELRIDSDTFRVLLNGENVLDKQSGDWLMLSRDLLYLDIESAIGNGLSGNLIYT”, the “soluble fraction (log2)” value was -0.143.

On to “HMQSVEELLDAIGDERLLHILLEADRKTLQIVVLKMMGYAPKEIGSHIGMPEQTVYTKLRRLREKIKKI”, for which the “soluble fraction (log2)” value is -1.07.

Consider “HMQSYHVGDKVTIKNSASHWATGQSIYNGVKGHTYKIIQTNGHKLLLDQVISWINDGDVYKAGS”, for which the “soluble fraction (log2)” value amounted to 0.0872.

Regarding “HMQSYSTIIGVIELRLSGIGYRTTKARYGIGNSTVTLIMNRFKETGFTLDDLKTMEPTKVEALFYPP”, the “soluble fraction (log2)” value is -0.229.

In the case of “HMQSYSYYDFQKALQNKTVESVIIEPDKTVPTGTLQIQLKGDTKEELNVSDVTEVEELLQSYDVDYKLRSV”, the “soluble fraction (log2)” value amounted to 0.0751.

As for “HMQTASVRFADGQLEVKQKGLQRVSVYSLNGMTVANKAVQGQDYVTISLPRAAYIVKITTQNGSFTKVI”, the “soluble fraction (log2)” value was 0.218.

Turning to “HMQTGRREALEAQLRETGGEAMLARLREIDPEAAARLHPADEKRVIRALEVYEETGKTITQHNLETKAVPP”, the “soluble fraction (log2)” value was -0.0698.

With “HMQTKEVDYGTFMSMIDEKNIGTVEIGDSQIVFTDKDNKNLYETGVMNDPDLAQRLHDAGATFSS”, the “soluble fraction (log2)” value was determined as 0.0149.

“HMQTLQTTSLRVSENQLFILDQQALPQEKRWLAADNVALLVDHIHTLRVRGAPLIGLSASLLLALLAGRLT”: the “soluble fraction (log2)” value was -0.764.

As to “HMQTMNKTNISNFEKYLNSGDVSEVIVVRNKSSVRVTLTPEALRSSEHQAVVGKNILGQENIKGPHYQFEV”, the “soluble fraction (log2)” value worked out at 0.138.

As to “HMQTPPGRYRHYKGGLYEVIATARHSETLEPMTVYRALYGEQGLWVRPAAMFAEDITLEGVRQPRFARI”, the “soluble fraction (log2)” value is -1.27.

Regarding “HMQTRIDISDAVLQWVVRKTQFAALPPKAAAHLTKWVRGEKKPTFNQLEEVSKATGIPLGYFFLQQPPHE”, the “soluble fraction (log2)” value was -0.561.

In the case of “HMQTTEDMEINAKVDEYLREMYLWNDEYKTLNLDHNKGYEDFFYDALGSMTTNTLDKKTYVGSDGKTYYNL”, the “soluble fraction (log2)” value is -0.933.

Consider “HMQTYTYYIAKNDISIGQKITPDMLIEKQVNLGDSKDRYLSREQLETGKYIAVRQIPAGELISSASANE”, for which the “soluble fraction (log2)” value worked out at 0.0749.

Turning to “HMQVAPQVERLLRVMGNETLSLSDIMGRMGLSDKKNFRESYLVPALRSAVIEMTIPDKPNSSLQKYRRIHE”, the “soluble fraction (log2)” value is -0.125.

With “HMQVEEKNKKIELYIEGKIKELESNLMYVPNENKKKLLMAFMNRNEDIEIIKTKIDTIFNKSVAAYKENM”, the “soluble fraction (log2)” value was -0.894.

Take “HMQVIDNHWRPSRDALDILLRDGISEHFIEDAIPEFILYWRERGTQDSNWNSRFLQHIRLQWARYTNAV”: the “soluble fraction (log2)” value was -0.936.

As to “HMQVPDLYRTLGVGRDATTEAIEAAYVGWQARLSAGEPISTQEWERLRYAHEVLSNPQRRSLYDSLVAET”, the “soluble fraction (log2)” value stood at 0.0568.

For “HMQVPVNVSMEILDWVIAHIKIDALPNQIREYLNLWVNGEKEPTFNQVEKVSKATGIPLGYFFLQTPPIED”, the “soluble fraction (log2)” value is -1.33.

As to “HMQVQHVWNRLKRPNGDVLYEINRDHPLVSASLDAAADRGAIETLLRQIEQSLPVNQLYVDMNADEHFE”, the “soluble fraction (log2)” value is -0.812.

With “HMQVSDAAQLAEVVKTVLAENPAAVGDYRKGKKAAIGFLLGQVMRHMRGTANPAVARQLLEQALEDE”, the “soluble fraction (log2)” value stood at 0.231.

Take “HMQVSDLSAIDSLIDKVLSEQQAAVQDFRSGQGKAMGFLIGKVMQASDGKANPKVIRELMGKKLA”: the “soluble fraction (log2)” value was -0.0313.

On to “HMQVSIGERVKLARMSAGLNQRQLGKEMGMSAMAISKYETGEVVPNSRVLIQLSQTLHVPLDFFFRS”, for which the “soluble fraction (log2)” value came out at 0.0627.

“HMQVTDADFDQIRLAVLSQLKQNSLTVAELLKIIPFKEQKVMPVIRFLIDNRVLEHGTDMKLTVGNSVK”: the “soluble fraction (log2)” value was -0.34.

Regarding “HMQVTIGADLAEHAARLDVQISDVVKLIKSGVSEGEIKVGLTKLETRLAHPELALVENKLAYLKALIAES”, the “soluble fraction (log2)” value is -0.79.

“HMQYALEDDLDSAIKLLTGKGLSGTVAWGWSDTYINVGKKSYSMEFIAKMLLRLGEGSRVTIQVDPA”: the “soluble fraction (log2)” value was -1.28.

For “HMQYIINFEYSGMLLREYLRGVLGLSHGTLTALKKDPLGILLNGEHATVRAVLHAGDRLTLALE”, the “soluble fraction (log2)” value was -1.13.

“HMQYKVMDVTVDGNPVIEFQNLNSKIKWIENNPDAIIQNIKTSSFEADQKRIVGTSRGPFWIVIKPDF”: the “soluble fraction (log2)” value was -0.299.

In the case of “HMQYRQRRGLERMELILDAATRVVAEVGYERTTTNAIATRAGISPGSLYQYFSSKEDIASALWERYAE”, the “soluble fraction (log2)” value was -0.251.

“HMRAGEAVTGQVIGVKEDEIILSIAGSKSEGIITRSEFTNEPNVDLTTKVSVGDELEVKVLKVNDGEGMAS”: the “soluble fraction (log2)” value is -0.244.

With “HMRAKPLILLDGREISAEELFSLDKNSIKSIEVLKDETALAQYGEKAKNGVVLVVTKSAAAS”, the “soluble fraction (log2)” value came out at 0.0982.

Take “HMRALPAGQADLLKWIDGVTPRSVEELELLSGLEPGRLSELLMELELAGIVRAVAGDSYIKISKS”: the “soluble fraction (log2)” value is -0.534.

In the case of “HMRAPETEITYTEFKTALRAGQIETATVGIEQISGKLTDGDLYRTVRVDDPDLLKDLEANHVNAAGRV”, the “soluble fraction (log2)” value was -0.0386.

With “HMRASQGRNELILSLLRGHELSILELLEGLEKQGVRVARPTLTKDLNELVSRGSVEATAPPRSKNRTYRIP”, the “soluble fraction (log2)” value was determined as 0.302.

With “HMRDFLMDSTKNKLSKDQVQLSRIFLWFGNDFGSKAERLEFISRYSGMDFNQPKIDYLTYDWSLNQ”, the “soluble fraction (log2)” value is -0.207.

Turning to “HMRDLITYVVQINGKLRGKLEVAPDTDPEELKALALEVENVKRSLEGWVVKKVIVVPGKMVSIAAG”, the “soluble fraction (log2)” value was -0.105.

With “HMRDLLPHFQRELQFLQTHRNEFAAAYPELGGRLATASDLLDDPHVERMVQSFALLAARVHKRLDDDF”, the “soluble fraction (log2)” value is -0.143.

The values are drawn from the domain aggregation screens of Martell et al. (2025).
